Test results from patent US20160015831A1 (BIOALLIANCE C V, published 2016).
Read-outs that look alike come from different tables or passages of the source.

Assays:
human CD22 [1] = biological target: T1, human CD22 (human, UniProt P20273 20-847); test: flow cytometry, REH cells, Tap18Hr1 conjugate 3.3 µg/mL
T1 construct: Endogenous CD22 on human cell lines Daudi, Raji, Ramos, RL, REH and NALM-6; no signal peptide limits are stated; also called antigen CD22
Procedure: (§1) 6×10⁴˜1×10⁵ cells were seeded per well in a v-bottomed 96-well plate and incubated with 100 μl of the unconjugated Abs or the ADCs at titrated concentrations or isotype control antibody human IgG at 10 μg/mL. After 30-60 minutes of incubation at 4° C., cells were washed once with 200 μl FACS buffer (lx PBS containing 1% FBS), stained with 100 μl of 1 μg/ml goat F(ab′)2-anti-human IgG (H+L)-RPE (Southern Biotech, Cat. No. 2043-09) in FACS buffer and then incubated at 4° C. for 30˜60 min Cells were washed once with FACS buffer and analyzed by flow cytometer (BD LSR, BD Life Sciences).
(§2) The binding ability of hLL2-Cys variants with or without drug conjugation was evaluated in Daudi and REH cancer cells.

human CD22 [2] = biological target: T1, human CD22; test: as above; remark: listed apart in the source
Procedure: as §1
(§3) In general, the site-specific conjugated hLL2-IgG4p ADCs retained antigen reactivity of antibody.

human CD22 [3] = biological target: T1, human CD22; test: flow cytometry, Daudi cells, Tap18Hr1 conjugate 3.3 µg/mL
Procedure: as §1, §2

human CD22 [4] = biological target: T1, human CD22; test: as above; remark: listed apart in the source
Procedure: as §1, §3

human CD22 [5] = biological target: T1, human CD22; test: flow cytometry, REH cells, unconjugated Ab 3.3 µg/mL
Procedure: as §1, §3

human CD22 [6] = biological target: T1, human CD22; test: flow cytometry, Daudi cells, unconjugated Ab 3.3 µg/mL
Procedure: as §1, §3

human CD22 [7] = biological target: T1, human CD22; test: as above; remark: listed apart in the source
Procedure: as §1, §2

human CD22 [8] = biological target: T1, human CD22; test: cell-based or functional assay
human CD22 [9] = biological target: T1, human CD22; test: cell-based or functional assay; remark: listed apart in the source

B1: hLL2-IgG1-Tap18Hr1 (antibody)
heavy: not shown
light: DIQLTQSPSSLSASVGDRVTMSCKSSQSVLYSANHKNYLAWYQQKPGKAPKLLIYWASTRESGVPSRFSGSGSGTDFTFTISSLQPEDIATYYCHQYLSSWTFGGGTKLEIKRTVAAPSVFIFPPSDEQLKSGTASVVCLLNNFYPREAKVQWKVDNALQSGNSQESVTEQDSKDSTYSLSSTLTLSKADYEKHKVYACEVTHQGLSSPVTKSFNRGEC
modifications: Tap18Hr1 linker-drug on cysteine thiols of the partially reduced antibody (light chain with 0 or 1 drug); sites not stated; Tap18Hr1 linker-drug (monomethyl dolastatin 10) on cysteine thiols of the partially reduced antibody, conventional conjugation, DAR 2.7-3.5; sites not stated
notes: also called Anti-hLL2-IgG1-Tap18Hr1; Anti-CD22 (hLL2)-IgG1-Tap18Hr1
MFI (human CD22 [1]): 104 | MFI (human CD22 [2]): 104 | MFI (human CD22 [3]): 1400 | MFI (human CD22 [4]): 1400

B2: hLL2-IgG4p (antibody)
heavy: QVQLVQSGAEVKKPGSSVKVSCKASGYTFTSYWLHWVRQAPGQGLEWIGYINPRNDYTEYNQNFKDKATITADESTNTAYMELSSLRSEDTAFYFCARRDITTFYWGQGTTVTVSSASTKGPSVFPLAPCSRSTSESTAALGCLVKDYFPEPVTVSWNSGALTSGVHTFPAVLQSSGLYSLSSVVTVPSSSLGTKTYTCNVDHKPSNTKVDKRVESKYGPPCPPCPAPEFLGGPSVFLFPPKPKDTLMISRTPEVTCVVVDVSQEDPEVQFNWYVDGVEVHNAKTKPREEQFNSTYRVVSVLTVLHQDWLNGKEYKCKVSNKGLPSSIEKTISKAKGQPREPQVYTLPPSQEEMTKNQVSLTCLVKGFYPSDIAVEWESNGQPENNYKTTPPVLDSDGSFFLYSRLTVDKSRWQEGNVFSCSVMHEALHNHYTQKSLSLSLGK
light: B1 light
notes: also called hLL2-IgG4p Ab
MFI (human CD22 [5]): 81 | MFI (human CD22 [6]): 792

B3: hLL2-IgG1 (antibody)
heavy: not shown
light: B1 light
notes: also called hLL2-IgG1 Ab; hLL2-wild type antibody
MFI (human CD22 [5]): 139 | MFI (human CD22 [7]): 1440 | MFI (human CD22 [6]): 1390

B4: hLL2-T155C-IgG1-Tap18Hr1 (antibody)
heavy: not shown
light: B1 light
modifications: Tap18Hr1 linker-drug (monomethyl dolastatin 10) on the introduced Cys 155 (EU numbering); site-specific conjugation, DAR 1.58-2.01
notes: also called hLL2-T155C-IgG1 Tap18Hr1 conjugate
MFI (human CD22 [3]): 1230 | % inhibition, WST-1 cytotoxicity, Daudi cells, 1.1 µg/mL (human CD22 [8]): 71% | % inhibition, WST-1 cytotoxicity, Daudi cells, 3.3 µg/mL (human CD22 [8]): 72.6% | % inhibition, WST-1 cytotoxicity, Ramos cells, 1.1 µg/mL (human CD22 [8]): 84.9% | % inhibition, WST-1 cytotoxicity, Ramos cells, 3.3 µg/mL (human CD22 [8]): 88.9%

B5: hLL2-T169C-IgG4p-Tap18Hr1 (antibody, name in EU numbering)
heavy: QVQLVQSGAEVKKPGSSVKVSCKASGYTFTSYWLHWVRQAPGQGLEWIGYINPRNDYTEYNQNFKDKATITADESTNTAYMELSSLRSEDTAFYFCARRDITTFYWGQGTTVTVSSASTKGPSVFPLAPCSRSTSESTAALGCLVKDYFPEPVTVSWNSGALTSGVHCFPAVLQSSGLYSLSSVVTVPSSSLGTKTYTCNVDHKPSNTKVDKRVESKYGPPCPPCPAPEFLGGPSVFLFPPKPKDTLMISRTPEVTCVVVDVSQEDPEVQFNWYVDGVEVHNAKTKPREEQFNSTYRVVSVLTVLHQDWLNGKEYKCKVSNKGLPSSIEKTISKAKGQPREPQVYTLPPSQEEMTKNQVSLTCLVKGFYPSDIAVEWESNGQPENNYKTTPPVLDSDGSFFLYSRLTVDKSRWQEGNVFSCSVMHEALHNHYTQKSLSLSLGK
light: B1 light
modifications: Tap18Hr1 linker-drug (monomethyl dolastatin 10) on the introduced Cys 169 (EU numbering); site-specific conjugation, DAR 1.58-2.01
notes: also called hLL2-T169C-IgG4p Tap18Hr1 conjugate
MFI (human CD22 [2]): 60 | MFI (human CD22 [4]): 625 | % inhibition, WST-1 cytotoxicity, Daudi cells, 1.1 µg/mL (human CD22 [9]): 67.2% | % inhibition, WST-1 cytotoxicity, Daudi cells, 3.3 µg/mL (human CD22 [9]): 70.8% | % inhibition, WST-1 cytotoxicity, NALM-6 cells, 10 ug/ml (human CD22 [9]): 68.2% | % inhibition, WST-1 cytotoxicity, REH cells, 10 ug/ml (human CD22 [9]): 42.6% | % inhibition, WST-1 cytotoxicity, Ramos cells, 1.1 µg/mL (human CD22 [9]): 89.6% | % inhibition, WST-1 cytotoxicity, Ramos cells, 3.3 µg/mL (human CD22 [9]): 93.3%

B6: hLL2-S442C-IgG4p-Tap18Hr1 (antibody, name in EU numbering)
heavy: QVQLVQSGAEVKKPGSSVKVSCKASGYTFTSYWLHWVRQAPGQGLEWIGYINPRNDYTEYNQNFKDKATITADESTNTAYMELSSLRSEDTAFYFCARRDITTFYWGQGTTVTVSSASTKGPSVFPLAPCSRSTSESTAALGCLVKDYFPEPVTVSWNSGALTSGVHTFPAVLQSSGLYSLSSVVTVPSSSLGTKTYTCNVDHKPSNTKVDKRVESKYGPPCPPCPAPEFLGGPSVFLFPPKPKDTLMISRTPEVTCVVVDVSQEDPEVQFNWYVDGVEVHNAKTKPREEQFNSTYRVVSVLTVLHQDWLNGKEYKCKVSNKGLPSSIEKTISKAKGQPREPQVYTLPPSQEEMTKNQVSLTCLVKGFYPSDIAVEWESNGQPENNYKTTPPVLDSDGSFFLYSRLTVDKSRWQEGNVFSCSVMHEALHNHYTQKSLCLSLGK
light: B1 light
modifications: Tap18Hr1 linker-drug (monomethyl dolastatin 10) on the introduced Cys 442 (EU numbering); site-specific conjugation, DAR 1.58-2.01
notes: also called hLL2-S442C-IgG4p Tap18Hr1 conjugate
MFI (human CD22 [2]): 52 | MFI (human CD22 [4]): 481 | % inhibition, WST-1 cytotoxicity, Daudi cells, 1.1 µg/mL (human CD22 [9]): 65.8% | % inhibition, WST-1 cytotoxicity, Daudi cells, 3.3 µg/mL (human CD22 [9]): 70.6% | % inhibition, WST-1 cytotoxicity, NALM-6 cells, 10 ug/ml (human CD22 [9]): 28.5% | % inhibition, WST-1 cytotoxicity, REH cells, 10 ug/ml (human CD22 [9]): 21.3% | % inhibition, WST-1 cytotoxicity, Ramos cells, 1.1 µg/mL (human CD22 [9]): 86.9% | % inhibition, WST-1 cytotoxicity, Ramos cells, 3.3 µg/mL (human CD22 [9]): 88.9%

B7: hLL2-S165C-IgG1 (antibody)
heavy: not shown
light: B1 light
notes: Position is EU numbering
MFI (human CD22 [7]): 1310

B8: hLL2-T169C-IgG4p (antibody, name in EU numbering)
heavy: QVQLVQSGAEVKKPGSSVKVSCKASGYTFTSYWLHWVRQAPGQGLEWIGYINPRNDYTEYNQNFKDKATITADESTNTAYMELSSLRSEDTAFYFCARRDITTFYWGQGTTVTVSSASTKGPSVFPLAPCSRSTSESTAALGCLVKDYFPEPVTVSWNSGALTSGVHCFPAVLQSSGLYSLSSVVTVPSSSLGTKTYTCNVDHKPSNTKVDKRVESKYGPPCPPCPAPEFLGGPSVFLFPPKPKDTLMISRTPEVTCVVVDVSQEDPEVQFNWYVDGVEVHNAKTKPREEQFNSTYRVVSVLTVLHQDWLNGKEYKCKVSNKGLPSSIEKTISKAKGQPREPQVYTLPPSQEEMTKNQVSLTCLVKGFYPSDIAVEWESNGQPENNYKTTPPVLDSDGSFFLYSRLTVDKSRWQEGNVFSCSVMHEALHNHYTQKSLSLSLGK
light: B1 light
notes: Position is EU numbering
MFI (human CD22 [5]): 74 | MFI (human CD22 [6]): 761

B9: hLL2-T169C-IgG1-Tap18Hr1 (antibody)
heavy: not shown
light: B1 light
modifications: Tap18Hr1 linker-drug (monomethyl dolastatin 10) on the introduced Cys 169 (EU numbering); site-specific conjugation, DAR 1.58-2.01
notes: also called hLL2-T169C-IgG1 Tap18Hr1 conjugate
MFI (human CD22 [3]): 1370 | % inhibition, WST-1 cytotoxicity, Daudi cells, 1.1 µg/mL (human CD22 [8]): 69.8% | % inhibition, WST-1 cytotoxicity, Daudi cells, 3.3 µg/mL (human CD22 [8]): 73.6% | % inhibition, WST-1 cytotoxicity, Ramos cells, 1.1 µg/mL (human CD22 [8]): 85.7% | % inhibition, WST-1 cytotoxicity, Ramos cells, 3.3 µg/mL (human CD22 [8]): 91.4%

B10: hLL2-S442C-IgG1-Tap18Hr1 (antibody)
heavy: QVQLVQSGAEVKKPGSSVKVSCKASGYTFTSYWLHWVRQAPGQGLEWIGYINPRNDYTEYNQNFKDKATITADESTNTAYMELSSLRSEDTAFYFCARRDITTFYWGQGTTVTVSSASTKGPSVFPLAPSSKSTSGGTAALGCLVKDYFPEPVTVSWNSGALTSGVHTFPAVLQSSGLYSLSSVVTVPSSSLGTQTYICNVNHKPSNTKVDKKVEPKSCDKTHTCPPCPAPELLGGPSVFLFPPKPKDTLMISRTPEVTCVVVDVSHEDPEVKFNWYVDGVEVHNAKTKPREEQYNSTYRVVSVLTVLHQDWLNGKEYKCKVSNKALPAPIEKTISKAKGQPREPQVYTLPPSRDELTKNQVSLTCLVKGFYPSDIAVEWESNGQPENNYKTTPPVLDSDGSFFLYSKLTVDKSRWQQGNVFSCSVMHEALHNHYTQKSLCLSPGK
light: B1 light
modifications: Tap18Hr1 linker-drug (monomethyl dolastatin 10) on the introduced Cys 442 (EU numbering); site-specific conjugation, DAR 1.58-2.01
notes: also called hLL2-S442C-IgG1 Tap18Hr1 conjugate
MFI (human CD22 [1]): 87 | MFI (human CD22 [3]): 914 | % inhibition, WST-1 cytotoxicity, Daudi cells, 1.1 µg/mL (human CD22 [8]): 77.6% | % inhibition, WST-1 cytotoxicity, Daudi cells, 3.3 µg/mL (human CD22 [8]): 79% | % inhibition, WST-1 cytotoxicity, Ramos cells, 1.1 µg/mL (human CD22 [8]): 92% | % inhibition, WST-1 cytotoxicity, Ramos cells, 3.3 µg/mL (human CD22 [8]): 96%

B11: hLL2-S442C-IgG4p (antibody, name in EU numbering)
heavy: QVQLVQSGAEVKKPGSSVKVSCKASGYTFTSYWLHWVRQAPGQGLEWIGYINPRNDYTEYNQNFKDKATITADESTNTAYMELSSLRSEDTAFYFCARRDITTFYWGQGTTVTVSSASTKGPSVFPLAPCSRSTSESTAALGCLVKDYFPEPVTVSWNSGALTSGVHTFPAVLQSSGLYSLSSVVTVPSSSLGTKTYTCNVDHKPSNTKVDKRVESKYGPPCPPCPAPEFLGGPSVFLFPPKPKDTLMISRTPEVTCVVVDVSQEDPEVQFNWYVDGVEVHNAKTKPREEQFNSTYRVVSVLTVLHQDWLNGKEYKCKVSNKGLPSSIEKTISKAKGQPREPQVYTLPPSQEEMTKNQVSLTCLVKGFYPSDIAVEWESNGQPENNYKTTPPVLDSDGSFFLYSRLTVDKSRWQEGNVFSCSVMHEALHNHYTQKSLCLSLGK
light: B1 light
notes: Position is EU numbering
MFI (human CD22 [5]): 70 | MFI (human CD22 [6]): 681

B12: hLL2-T155C-IgG4p-Tap18Hr1 (antibody, name in EU numbering)
heavy: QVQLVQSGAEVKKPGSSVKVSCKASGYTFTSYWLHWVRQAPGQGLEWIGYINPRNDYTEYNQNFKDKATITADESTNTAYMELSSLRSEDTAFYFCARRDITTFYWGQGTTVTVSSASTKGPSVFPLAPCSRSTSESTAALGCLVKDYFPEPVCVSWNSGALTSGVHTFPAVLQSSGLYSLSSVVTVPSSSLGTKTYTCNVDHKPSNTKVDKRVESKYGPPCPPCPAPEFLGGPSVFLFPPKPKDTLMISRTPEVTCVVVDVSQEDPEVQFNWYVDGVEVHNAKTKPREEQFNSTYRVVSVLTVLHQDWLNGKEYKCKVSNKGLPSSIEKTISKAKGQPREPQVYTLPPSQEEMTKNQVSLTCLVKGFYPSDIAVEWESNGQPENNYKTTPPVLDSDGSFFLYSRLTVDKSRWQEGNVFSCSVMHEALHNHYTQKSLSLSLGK
light: B1 light
modifications: Tap18Hr1 linker-drug (monomethyl dolastatin 10) on the introduced Cys 155 (EU numbering); site-specific conjugation, DAR 1.58-2.01
notes: also called hLL2-T155C-IgG4p Tap18Hr1 conjugate
MFI (human CD22 [2]): 66 | MFI (human CD22 [4]): 515 | % inhibition, WST-1 cytotoxicity, Daudi cells, 1.1 µg/mL (human CD22 [9]): 66.2% | % inhibition, WST-1 cytotoxicity, Daudi cells, 3.3 µg/mL (human CD22 [9]): 70.2% | % inhibition, WST-1 cytotoxicity, NALM-6 cells, 10 ug/ml (human CD22 [9]): 45.3% | % inhibition, WST-1 cytotoxicity, REH cells, 10 ug/ml (human CD22 [9]): 22.4% | % inhibition, WST-1 cytotoxicity, Ramos cells, 1.1 µg/mL (human CD22 [9]): 89.4% | % inhibition, WST-1 cytotoxicity, Ramos cells, 3.3 µg/mL (human CD22 [9]): 94.9%

B13: hLL2-T155C-IgG1 (antibody)
heavy: not shown
light: B1 light
notes: Position is EU numbering
MFI (human CD22 [7]): 1250

B14: hLL2-S442C-IgG1 (antibody)
heavy: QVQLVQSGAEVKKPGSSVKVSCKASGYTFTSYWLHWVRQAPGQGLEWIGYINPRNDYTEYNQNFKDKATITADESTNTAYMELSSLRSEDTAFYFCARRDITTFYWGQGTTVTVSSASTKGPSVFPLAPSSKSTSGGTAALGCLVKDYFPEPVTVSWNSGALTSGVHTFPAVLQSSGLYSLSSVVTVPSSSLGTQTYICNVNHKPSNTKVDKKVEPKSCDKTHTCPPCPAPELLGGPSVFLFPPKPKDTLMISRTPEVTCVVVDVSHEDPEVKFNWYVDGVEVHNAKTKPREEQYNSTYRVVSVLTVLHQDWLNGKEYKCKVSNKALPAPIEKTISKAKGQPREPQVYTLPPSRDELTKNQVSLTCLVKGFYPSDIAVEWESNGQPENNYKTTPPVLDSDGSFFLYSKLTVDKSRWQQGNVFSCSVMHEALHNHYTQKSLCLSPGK
light: B1 light
notes: Position is EU numbering
MFI (human CD22 [7]): 1150

B15: hLL2-S165C-IgG1-Tap18Hr1 (antibody)
heavy: not shown
light: B1 light
modifications: Tap18Hr1 linker-drug (monomethyl dolastatin 10) on the introduced Cys 165 (EU numbering); site-specific conjugation, DAR 1.58-2.01
notes: also called hLL2-S165C-IgG1 Tap18Hr1 conjugate
MFI (human CD22 [3]): 1230 | % inhibition, WST-1 cytotoxicity, Daudi cells, 1.1 µg/mL (human CD22 [8]): 60.5% | % inhibition, WST-1 cytotoxicity, Daudi cells, 3.3 µg/mL (human CD22 [8]): 65.1% | % inhibition, WST-1 cytotoxicity, Ramos cells, 1.1 µg/mL (human CD22 [8]): 72.6% | % inhibition, WST-1 cytotoxicity, Ramos cells, 3.3 µg/mL (human CD22 [8]): 79.4%

B16: hLL2-T155C-IgG4p (antibody, name in EU numbering)
heavy: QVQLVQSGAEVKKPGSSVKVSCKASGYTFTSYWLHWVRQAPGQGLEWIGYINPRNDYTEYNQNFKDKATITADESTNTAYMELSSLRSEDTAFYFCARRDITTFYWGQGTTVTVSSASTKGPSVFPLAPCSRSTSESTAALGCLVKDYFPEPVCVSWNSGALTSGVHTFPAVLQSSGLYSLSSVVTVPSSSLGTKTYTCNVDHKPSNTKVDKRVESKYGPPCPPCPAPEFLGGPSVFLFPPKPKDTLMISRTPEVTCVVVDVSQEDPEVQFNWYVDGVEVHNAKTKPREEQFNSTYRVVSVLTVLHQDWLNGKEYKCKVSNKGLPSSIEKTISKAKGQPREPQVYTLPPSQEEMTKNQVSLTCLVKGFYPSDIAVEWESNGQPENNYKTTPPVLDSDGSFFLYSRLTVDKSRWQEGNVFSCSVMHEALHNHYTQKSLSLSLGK
light: B1 light
notes: Position is EU numbering
MFI (human CD22 [5]): 79 | MFI (human CD22 [6]): 601

B17: hLL2-S157C-IgG1 (antibody)
heavy: not shown
light: B1 light
notes: Position is EU numbering
MFI (human CD22 [7]): 1300

B18: hLL2-T169C-IgG1 (antibody)
heavy: not shown
light: B1 light
notes: Position is EU numbering
MFI (human CD22 [7]): 1300

B19: hLL2-S157C-IgG1-Tap18Hr1 (antibody)
heavy: not shown
light: B1 light
modifications: Tap18Hr1 linker-drug (monomethyl dolastatin 10) on the introduced Cys 157 (EU numbering); site-specific conjugation, DAR 1.58-2.01
notes: also called hLL2-S157C-IgG1 Tap18Hr1 conjugate
MFI (human CD22 [1]): 94 | MFI (human CD22 [3]): 1230 | % inhibition, WST-1 cytotoxicity, Daudi cells, 1.1 µg/mL (human CD22 [8]): 76.3% | % inhibition, WST-1 cytotoxicity, Daudi cells, 3.3 µg/mL (human CD22 [8]): 79.4% | % inhibition, WST-1 cytotoxicity, Ramos cells, 1.1 µg/mL (human CD22 [8]): 90.4% | % inhibition, WST-1 cytotoxicity, Ramos cells, 3.3 µg/mL (human CD22 [8]): 93.9%
